Patent US20210388087A1 (Chugai, published 2021)

T1: Human CD3eg linker (human)
T1 construct: Single-chain construct; also called recombinant human CD3
T1 chain: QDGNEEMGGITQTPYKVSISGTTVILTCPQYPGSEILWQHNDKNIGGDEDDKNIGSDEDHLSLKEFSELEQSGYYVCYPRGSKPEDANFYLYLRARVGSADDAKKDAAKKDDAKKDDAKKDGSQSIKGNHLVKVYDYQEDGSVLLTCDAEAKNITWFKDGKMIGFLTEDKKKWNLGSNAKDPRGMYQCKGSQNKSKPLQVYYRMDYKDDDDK


Target: T1, Human CD3eg linker
Test: SPR; fold vs parent H183/L072

Binder | fold change of affinity [fold]
H183/L072 VL S93A (antibody, name in Kabat numbering, V domains shown) VH: QVQLVESGGGLVQPGRSLRLSCAASGFTFSNAWMHWVRQAPGKGLEWVAQIKDKGNAYAAYYAPSVKGRFTISRDDSKNSIYLQMNSLKTEDTAVYYCHYVHYASASTVLPAFGVDAWGQGTTVTVSS VL: DIVMTQSPLSLPVTPGEPASISCQASQELVHMNRNTYLHWYQQKPGQAPRLLIYKVSNRFPGVPDRFSGSGSGTDFTLKISRVEAEDVGVYYCAQGTAVPFTFGQGTKLEIK | 1.1
H183/L072 VL S93V (antibody, name in Kabat numbering, V domains shown) VH: QVQLVESGGGLVQPGRSLRLSCAASGFTFSNAWMHWVRQAPGKGLEWVAQIKDKGNAYAAYYAPSVKGRFTISRDDSKNSIYLQMNSLKTEDTAVYYCHYVHYASASTVLPAFGVDAWGQGTTVTVSS VL: DIVMTQSPLSLPVTPGEPASISCQASQELVHMNRNTYLHWYQQKPGQAPRLLIYKVSNRFPGVPDRFSGSGSGTDFTLKISRVEAEDVGVYYCAQGTVVPFTFGQGTKLEIK | 0.7
H183/L072 VL S93K (antibody, name in Kabat numbering, V domains shown) VH: QVQLVESGGGLVQPGRSLRLSCAASGFTFSNAWMHWVRQAPGKGLEWVAQIKDKGNAYAAYYAPSVKGRFTISRDDSKNSIYLQMNSLKTEDTAVYYCHYVHYASASTVLPAFGVDAWGQGTTVTVSS VL: DIVMTQSPLSLPVTPGEPASISCQASQELVHMNRNTYLHWYQQKPGQAPRLLIYKVSNRFPGVPDRFSGSGSGTDFTLKISRVEAEDVGVYYCAQGTKVPFTFGQGTKLEIK | 1
H183/L072 VL T31G (antibody, name in Kabat numbering, V domains shown) VH: QVQLVESGGGLVQPGRSLRLSCAASGFTFSNAWMHWVRQAPGKGLEWVAQIKDKGNAYAAYYAPSVKGRFTISRDDSKNSIYLQMNSLKTEDTAVYYCHYVHYASASTVLPAFGVDAWGQGTTVTVSS VL: DIVMTQSPLSLPVTPGEPASISCQASQELVHMNRNGYLHWYQQKPGQAPRLLIYKVSNRFPGVPDRFSGSGSGTDFTLKISRVEAEDVGVYYCAQGTSVPFTFGQGTKLEIK | 0
H183/L072 VL S93D (antibody, name in Kabat numbering, V domains shown) VH: QVQLVESGGGLVQPGRSLRLSCAASGFTFSNAWMHWVRQAPGKGLEWVAQIKDKGNAYAAYYAPSVKGRFTISRDDSKNSIYLQMNSLKTEDTAVYYCHYVHYASASTVLPAFGVDAWGQGTTVTVSS VL: DIVMTQSPLSLPVTPGEPASISCQASQELVHMNRNTYLHWYQQKPGQAPRLLIYKVSNRFPGVPDRFSGSGSGTDFTLKISRVEAEDVGVYYCAQGTDVPFTFGQGTKLEIK | 0.7
H183/L072 VL S93Q (antibody, name in Kabat numbering, V domains shown) VH: QVQLVESGGGLVQPGRSLRLSCAASGFTFSNAWMHWVRQAPGKGLEWVAQIKDKGNAYAAYYAPSVKGRFTISRDDSKNSIYLQMNSLKTEDTAVYYCHYVHYASASTVLPAFGVDAWGQGTTVTVSS VL: DIVMTQSPLSLPVTPGEPASISCQASQELVHMNRNTYLHWYQQKPGQAPRLLIYKVSNRFPGVPDRFSGSGSGTDFTLKISRVEAEDVGVYYCAQGTQVPFTFGQGTKLEIK | 1
H183/L072 VL S93T (antibody, name in Kabat numbering, V domains shown) VH: QVQLVESGGGLVQPGRSLRLSCAASGFTFSNAWMHWVRQAPGKGLEWVAQIKDKGNAYAAYYAPSVKGRFTISRDDSKNSIYLQMNSLKTEDTAVYYCHYVHYASASTVLPAFGVDAWGQGTTVTVSS VL: DIVMTQSPLSLPVTPGEPASISCQASQELVHMNRNTYLHWYQQKPGQAPRLLIYKVSNRFPGVPDRFSGSGSGTDFTLKISRVEAEDVGVYYCAQGTTVPFTFGQGTKLEIK | 1
H183/L072 VL S93N (antibody, name in Kabat numbering, V domains shown) VH: QVQLVESGGGLVQPGRSLRLSCAASGFTFSNAWMHWVRQAPGKGLEWVAQIKDKGNAYAAYYAPSVKGRFTISRDDSKNSIYLQMNSLKTEDTAVYYCHYVHYASASTVLPAFGVDAWGQGTTVTVSS VL: DIVMTQSPLSLPVTPGEPASISCQASQELVHMNRNTYLHWYQQKPGQAPRLLIYKVSNRFPGVPDRFSGSGSGTDFTLKISRVEAEDVGVYYCAQGTNVPFTFGQGTKLEIK | 0.8
H183/L072 VL S93I (antibody, name in Kabat numbering, V domains shown) VH: QVQLVESGGGLVQPGRSLRLSCAASGFTFSNAWMHWVRQAPGKGLEWVAQIKDKGNAYAAYYAPSVKGRFTISRDDSKNSIYLQMNSLKTEDTAVYYCHYVHYASASTVLPAFGVDAWGQGTTVTVSS VL: DIVMTQSPLSLPVTPGEPASISCQASQELVHMNRNTYLHWYQQKPGQAPRLLIYKVSNRFPGVPDRFSGSGSGTDFTLKISRVEAEDVGVYYCAQGTIVPFTFGQGTKLEIK | 0.8
H183/L072 VL S93M (antibody, name in Kabat numbering, V domains shown) VH: QVQLVESGGGLVQPGRSLRLSCAASGFTFSNAWMHWVRQAPGKGLEWVAQIKDKGNAYAAYYAPSVKGRFTISRDDSKNSIYLQMNSLKTEDTAVYYCHYVHYASASTVLPAFGVDAWGQGTTVTVSS VL: DIVMTQSPLSLPVTPGEPASISCQASQELVHMNRNTYLHWYQQKPGQAPRLLIYKVSNRFPGVPDRFSGSGSGTDFTLKISRVEAEDVGVYYCAQGTMVPFTFGQGTKLEIK | 1
H183/L072 VL S93W (antibody, name in Kabat numbering, V domains shown) VH: QVQLVESGGGLVQPGRSLRLSCAASGFTFSNAWMHWVRQAPGKGLEWVAQIKDKGNAYAAYYAPSVKGRFTISRDDSKNSIYLQMNSLKTEDTAVYYCHYVHYASASTVLPAFGVDAWGQGTTVTVSS VL: DIVMTQSPLSLPVTPGEPASISCQASQELVHMNRNTYLHWYQQKPGQAPRLLIYKVSNRFPGVPDRFSGSGSGTDFTLKISRVEAEDVGVYYCAQGTWVPFTFGQGTKLEIK | 1.1
H183/L072 VL S93E (antibody, name in Kabat numbering, V domains shown) VH: QVQLVESGGGLVQPGRSLRLSCAASGFTFSNAWMHWVRQAPGKGLEWVAQIKDKGNAYAAYYAPSVKGRFTISRDDSKNSIYLQMNSLKTEDTAVYYCHYVHYASASTVLPAFGVDAWGQGTTVTVSS VL: DIVMTQSPLSLPVTPGEPASISCQASQELVHMNRNTYLHWYQQKPGQAPRLLIYKVSNRFPGVPDRFSGSGSGTDFTLKISRVEAEDVGVYYCAQGTEVPFTFGQGTKLEIK | 1
H183/L072 VL T31A (antibody, name in Kabat numbering, V domains shown) VH: QVQLVESGGGLVQPGRSLRLSCAASGFTFSNAWMHWVRQAPGKGLEWVAQIKDKGNAYAAYYAPSVKGRFTISRDDSKNSIYLQMNSLKTEDTAVYYCHYVHYASASTVLPAFGVDAWGQGTTVTVSS VL: DIVMTQSPLSLPVTPGEPASISCQASQELVHMNRNAYLHWYQQKPGQAPRLLIYKVSNRFPGVPDRFSGSGSGTDFTLKISRVEAEDVGVYYCAQGTSVPFTFGQGTKLEIK | 0.2
H183/L072 VL S93G (antibody, name in Kabat numbering, V domains shown) VH: QVQLVESGGGLVQPGRSLRLSCAASGFTFSNAWMHWVRQAPGKGLEWVAQIKDKGNAYAAYYAPSVKGRFTISRDDSKNSIYLQMNSLKTEDTAVYYCHYVHYASASTVLPAFGVDAWGQGTTVTVSS VL: DIVMTQSPLSLPVTPGEPASISCQASQELVHMNRNTYLHWYQQKPGQAPRLLIYKVSNRFPGVPDRFSGSGSGTDFTLKISRVEAEDVGVYYCAQGTGVPFTFGQGTKLEIK | 0.8
H183/L072 VL S93L (antibody, name in Kabat numbering, V domains shown) VH: QVQLVESGGGLVQPGRSLRLSCAASGFTFSNAWMHWVRQAPGKGLEWVAQIKDKGNAYAAYYAPSVKGRFTISRDDSKNSIYLQMNSLKTEDTAVYYCHYVHYASASTVLPAFGVDAWGQGTTVTVSS VL: DIVMTQSPLSLPVTPGEPASISCQASQELVHMNRNTYLHWYQQKPGQAPRLLIYKVSNRFPGVPDRFSGSGSGTDFTLKISRVEAEDVGVYYCAQGTLVPFTFGQGTKLEIK | 0.9
H183/L072 VL S93F (antibody, name in Kabat numbering, V domains shown) VH: QVQLVESGGGLVQPGRSLRLSCAASGFTFSNAWMHWVRQAPGKGLEWVAQIKDKGNAYAAYYAPSVKGRFTISRDDSKNSIYLQMNSLKTEDTAVYYCHYVHYASASTVLPAFGVDAWGQGTTVTVSS VL: DIVMTQSPLSLPVTPGEPASISCQASQELVHMNRNTYLHWYQQKPGQAPRLLIYKVSNRFPGVPDRFSGSGSGTDFTLKISRVEAEDVGVYYCAQGTFVPFTFGQGTKLEIK | 1
H183/L072 VL S93R (antibody, name in Kabat numbering, V domains shown) VH: QVQLVESGGGLVQPGRSLRLSCAASGFTFSNAWMHWVRQAPGKGLEWVAQIKDKGNAYAAYYAPSVKGRFTISRDDSKNSIYLQMNSLKTEDTAVYYCHYVHYASASTVLPAFGVDAWGQGTTVTVSS VL: DIVMTQSPLSLPVTPGEPASISCQASQELVHMNRNTYLHWYQQKPGQAPRLLIYKVSNRFPGVPDRFSGSGSGTDFTLKISRVEAEDVGVYYCAQGTRVPFTFGQGTKLEIK | 1
H183/L072 VL T31D (antibody, name in Kabat numbering, V domains shown) VH: QVQLVESGGGLVQPGRSLRLSCAASGFTFSNAWMHWVRQAPGKGLEWVAQIKDKGNAYAAYYAPSVKGRFTISRDDSKNSIYLQMNSLKTEDTAVYYCHYVHYASASTVLPAFGVDAWGQGTTVTVSS VL: DIVMTQSPLSLPVTPGEPASISCQASQELVHMNRNDYLHWYQQKPGQAPRLLIYKVSNRFPGVPDRFSGSGSGTDFTLKISRVEAEDVGVYYCAQGTSVPFTFGQGTKLEIK | 0
H183/L072 VL T31E (antibody, name in Kabat numbering, V domains shown) VH: QVQLVESGGGLVQPGRSLRLSCAASGFTFSNAWMHWVRQAPGKGLEWVAQIKDKGNAYAAYYAPSVKGRFTISRDDSKNSIYLQMNSLKTEDTAVYYCHYVHYASASTVLPAFGVDAWGQGTTVTVSS VL: DIVMTQSPLSLPVTPGEPASISCQASQELVHMNRNEYLHWYQQKPGQAPRLLIYKVSNRFPGVPDRFSGSGSGTDFTLKISRVEAEDVGVYYCAQGTSVPFTFGQGTKLEIK | 0.4
H183/L072 VL S93H (antibody, name in Kabat numbering, V domains shown) VH: QVQLVESGGGLVQPGRSLRLSCAASGFTFSNAWMHWVRQAPGKGLEWVAQIKDKGNAYAAYYAPSVKGRFTISRDDSKNSIYLQMNSLKTEDTAVYYCHYVHYASASTVLPAFGVDAWGQGTTVTVSS VL: DIVMTQSPLSLPVTPGEPASISCQASQELVHMNRNTYLHWYQQKPGQAPRLLIYKVSNRFPGVPDRFSGSGSGTDFTLKISRVEAEDVGVYYCAQGTHVPFTFGQGTKLEIK | 0.9
